US8071348B2, “Protein tyrosine phosphatase substrate-trapping double mutant and uses thereof” (Albert Einstein College of Medicine of Yeshiva University, priority 2002, dated 2011)
Substitutions are numbered along the chain they refer to. Names may count otherwise. Read-outs that look alike come from different tables or passages of the source.

T1: EGFR^988-998 peptide, DADEpYLIPQQG (Homo sapiens, UniProt P18031, Q262A)
T1 construct: The catalytic domain of PTP1B (residues 1 to 321) was used for in vitro study; made in house; host or cells: E. coli (pT7-7 plasmids)
T1 sequence (P18031 1-321 Q262A): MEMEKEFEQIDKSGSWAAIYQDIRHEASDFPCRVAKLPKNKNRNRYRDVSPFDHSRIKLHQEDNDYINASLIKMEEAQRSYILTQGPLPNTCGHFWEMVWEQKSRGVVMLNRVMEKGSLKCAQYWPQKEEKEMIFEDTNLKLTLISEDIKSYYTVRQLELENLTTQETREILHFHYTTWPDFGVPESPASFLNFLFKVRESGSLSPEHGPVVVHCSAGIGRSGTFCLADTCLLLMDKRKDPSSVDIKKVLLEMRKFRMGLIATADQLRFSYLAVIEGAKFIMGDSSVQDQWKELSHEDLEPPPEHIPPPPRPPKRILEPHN

T2: EGFR 988-998 peptide DADEpYLIPQQG
T2 chain: DADEXLIPQQG

B1: Q262A: PTP1B mutant, Gln262 replaced by Ala, described previously (protein, UniProt P18031 1-435, looked up, variant Q262A)
Tyrosine-protein phosphatase …: MEMEKEFEQIDKSGSWAAIYQDIRHEASDFPCRVAKLPKNKNRNRYRDVSPFDHSRIKLHQEDNDYINASLIKMEEAQRSYILTQGPLPNTCGHFWEMVWEQKSRGVVMLNRVMEKGSLKCAQYWPQKEEKEMIFEDTNLKLTLISEDIKSYYTVRQLELENLTTQETREILHFHYTTWPDFGVPESPASFLNFLFKVRESGSLSPEHGPVVVHCSAGIGRSGTFCLADTCLLLMDKRKDPSSVDIKKVLLEMRKFRMGLIATADQLRFSYLAVIEGAKFIMGDSSVQDQWKELSHEDLEPPPEHIPPPPRPPKRILEPHNGKCREFFPNHQWVKEETQEDKDCPIKEEKGSPLNAAPYGIESMSQDTEVRSRVVGGSLRGAQAASPAKGEPSLPEKDEDHALSYWKPFLVNMCVATVLTAGAYLCYRFLFNSNT
B2: wild-type PTP1B, catalytic domain (residues 1 to 321) (protein)
chain: T1 sequence (P18031 1-321 Q262A) with A262Q

How the values were obtained:
[1] = target: T1, EGFR^988-998 peptide, DADEpYLIPQQG; conditions: cited from earlier work
[2] = pNPP as substrate, cited from earlier work
[3] = tested on: EGFR^988-998 peptide, DADEpYLIPQQG; assay: Kinetic constants for PTP1B-catalyzed hydrolysis of pTyr-containing EGFR988-998 peptide; assay type: biochemical; conditions: EGFR988-998 peptide as substrate; 25° C. and pH 7.0
Description: (§1) The catalytic domain of PTP1B (residues 1 to 321) was used for in vitro study. PTP1B mutants, C215S, D181A, and Q262A, were described previously (9, 25, 26). PTP1B double mutants, D181A/C215S and C215S/Q262A, were generated by PCR reactions, according to the standard procedure of the Quick-Change™ site-directed mutagenesis kit (Stratagene), using pT7-7/PTP1B/C215S as a template. PTP1B double mutants, D181A/C215E and D181A/Q262A, were generated by similar PCR procedures, using pT7-7/PTP1B/D181A as a template. The recombinant wild-type and mutant PTP1Bs were expressed in E. coli, and purified to homogeneity as described (25, 27). Protein concentration was determined from absorbance measurement at 280 nm, using an absorbance coefficient of 1.24 for 1 mg/ml PTP1B.
All assays were performed at 25° C. in buffer (pH 7.0, ionic strength=0.15 M) containing 50 mM 3,3-dimethylglutarate and 1 mM EDTA. A continuous spectrophotometric assay, previously described (28), was employed to determine kcat and Km for the pTyr-containing peptides. The dephosphorylation reaction was monitored by either an increase in absorbance at 282 nm, or an increase in fluorescence at 305 nm. Fluorometric and absorbance determinations were performed on a Perkin-Elmer LS50B fluorometer and a Perkin-Elmer Lambda 14 spectrophotometer, respectively. The instruments were equipped with a water-jacketed cell holder, permitting maintenance of the reaction mixture at the desired temperature (25° C.).

[4] = tested on: EGF receptor; assay: Substrate protection: EGF receptor tyrosine phosphorylation in COS1 cells expressing PTP1B forms (anti-pTyr Western blot); assay type: cell-based, Monkey; conditions: COS1 cell lysates, anti-pTyr immunoblot (FIG. 4)
Protocol: FIG. 4 sets forth Western blots (WB) that show the level of tyrosine phosphorylation in the epidermal growth factor receptor (EGFR) upon expression of the wild-type and mutant PTP1Bs (4 μg plasmid/60 mm dish) in COS1 cells. Samples (50 μg total protein) were taken from the lysates of COS1 cells transfected with 4 μg of pJ3H plasmids expressing HA-tagged wild-type PTP1B, D181A, C215S, D181A/Q262A, or D181A/C215S. These samples were loaded into each lane for SDS-PAGE electrophoresis, and transferred onto a nitrocellulose membrane. The proteins on the membrane were first immunoblotted with anti-pTyr HRP conjugate (upper panel). The membrane was then stripped and re-probed with anti-hemagglutinin (anti-HA) HRP conjugate (lower panel).
The hemagglutinin-tagged (HA-tagged) full-length human wild-type PTP1B in pJ3H expression vector was a gift from Dr. Chemoff (30). The HA-tagged PTP1B mutants, C215S, D181A, D181A/C215S, and D181A/Q262A, were generated by PCR reactions, according to the standard procedure of the Quick-Change™ site-directed mutagenesis kit (Stratagene), using pJ3H-HA-PTP1B as a template. All mutations were verified by DNA sequencing.
Monkey kidney COS1 cells (ATCC: CRL-1650) were maintained in Dulbecco's modified Eagle's minimum essential medium (DMEM), supplemented with 10% fetal bovine serum (Life Technologies, Inc.), penicillin (50 units/ml), streptomycin (50 μg/ml), and L-glutamine (2 mM) under a humidified atmosphere containing 5% CO2. In transient transfection experiments, COS1 cells were inoculated at a density of 2×10^5 cells/60-mm dish, and grown overnight in DMEM containing 10% fetal bovine serum. Transfection was performed using LipoTAXI^R according to the manufacturer's recommendations (Stratagene, Cedar Creek, Tex.). Each transfection assay included 4 μg of purified DNA mixed with LipoTAXI^R in a 1:5 DNA:lipid ratio per 60-mm dish of cells. Following transfection, the cells were exchanged to normal culture medium, and maintained for 44 to 48 h at 37° C. and 5% CO2. The efficiency of transfection, as assessed by 5-bromo-4-chloro-3-indolyl-β-D galactoside (X-Gal) staining of pCMV-β-gal-transfected (β-Gal staining kit, Invitrogen) COS cells, was 25%.
The transfected cells (treated with or without EGF) were lysed with “lysis buffer” containing 50 mM Tris-HC1 (pH 7.5), 5 mM EDTA, 150 mM NaCl, 10 mM sodium phosphate, 10 mM sodium fluoride, 5 mM iodoacetic acid, 1 mM benzamidine, 1% Triton X-100, 10 μg/ml leupeptin, and 5 μg/ml Aprotinin. Lysate protein concentration was estimated using Bio-Rad protein assay reagent (Bio-Rad, Hercules, Calif.).
For immunoprecipitation, 1 mg of cell lysate was immunoprecipitated overnight with 30 μl of agarose-conjugated anti-hemagglutinin antibody at 4° C. Immunocomplexes were washed four times with the cell lysis buffer, and boiled for 5 min in SDS-PAGE sample buffer. Proteins in the cell lysate were separated by 8% SDS-PAGE under reducing conditions, according to the method of Laemmli (31), followed by blotting onto nitrocellulose membranes (Protran, Schleicher & Schuell). The nitrocellulose membranes were blocked with 5% non-fat dry milk in Tris-buffered saline/Tween (TBST) buffer (20 mM Tris-HC1, 150 mM NaCl, 0.1% Tween-20; pH 7.6) for 1 h at 25° C.
Thereafter, blots were incubated overnight with primary antibodies diluted in TBST containing 5% non-fat dry milk at 4° C. […]

[5] = target: Ac-Asp-Ala-Asp-Glu-F2Pmp-Leu-NH2; conditions: ITC, 25° C. and pH 7.0; data from (24); cited from earlier work
[6] = target: T2, EGFR 988-998 peptide DADEpYLIPQQG
[7] = Kinetic constants for PTP1B-catalyzed hydrolysis of pNPP; assay type: biochemical; conditions: pNPP as substrate; 25° C. and pH 7.0
Description: as §1
PTP activity was assayed at 25° C. and pH 7.0, in a reaction mixture (0.2 ml) containing pNPP concentrations ranging from 0.2 to 5 Km. The following buffered solution was used for activity measurements: pH 7.0, 50 mM 3,3-dimethylglutarate, 1 mM EDTA; the ionic strength was 0.15 M, as adjusted by addition of NaCl. Initial rate measurements for the enzyme-catalyzed hydrolysis of pNPP were conducted as previously described (26). Michaelis-Menten kinetic parameters were determined from a direct fit of the data to the Michaelis-Menten equation, using the nonlinear regression program, KINETASYST (Intellikinetics, State College, Pa.).

[8] = EGFR988-998 peptide as substrate, 30° C. and pH 7.0 (26)
[9] = hydrolysis of EGFR988-998 peptide and phosphorylated lysozyme, previous kinetic studies (18, 26)

Row | Molecule | Km [1, 8] | kcat [1, 8] | fold reduction of kcat ([1]; EGFR988-998 peptide as substrate, (26)) | fold decrease in Km ([1]; EGFR988-998 peptide as substrate, shown previously (26)) | fold reduction of kcat [1, 9] | fold reduction of kcat/Km [1, 9] | Km ([2]; 30° C. and pH 7.0 (26)) | kcat ([2]; 30° C. and pH 7.0 (26)) | fold reduction of kcat ([2]; (26)) | fold decrease in Km ([2]; shown previously (26)) | Km [3] | kcat [3] | level of pTyr in the EGF receptor / enhancement of EGF receptor phosphorylation [4] | Kd [5] | Km (hydrolysis of the EGFR 988-998 peptide, 25 C, pH 7.0) [6] | Km [7] | kcat [7]
1 | B1 | 350 ± 50 nM | 0.29 ± 0.002 s^− | 150 fold | 7.4 fold | 100 fold | 10 fold | 58 ± 6 µM | 0.21 ± 0.01 s⁻¹ | 80 fold | 38 fold | – | – | – | – | – | – | –
2 | B2 | – | – | – | – | – | – | – | – | – | – | 2600 ± 300 nM | 30 ± 1 s^− | comparable to that in the vector control | 240 ± 50 nM | 2.6 µM | 2.4 ± 0.2 mM | 9.8 ± 0.5 s⁻¹
